Assays:
human insulin receptor = human insulin receptor (Homo sapiens, UniProt P06213); assay: Assay (I) insulin receptor binding, SPA antibody capture assay; details: recombinant human insulin receptor - exon 11, A14 Tyr[125I]-human insulin tracer
Protocol: SPA-PVT antibody-binding beads, anti-mouse reagent (Amersham Biosciences, Cat No. PRNQ0017) were mixed with 25 ml of binding buffer (100 mM HEPES pH 7.8; 100 mM sodium chloride, 10 mM MgSO4, 0.025% Tween-20). […] A total of 100 μl was then added and a dilution series is made from appropriate samples. To the dilution series was then added 100 μl of reagent mix and the samples were incubated for 16 hours while gently shaken. The phases were the then separated by centrifugation for 1 min and the plates counted in a Topcounter. The binding data were fitted using the nonlinear regression algorithm in the GraphPad Prism 2.01 (GraphPad Software, San Diego, Calif.).
Specific antibodies (F12) were produced by monoclonal technique: RBF mice were immunized by injecting 50 μg of purified mIR in FCA subcutaneously followed by two injections with 20 μg of mIR in FIA. Highresponder mice were boosted intravenously with 25 μg of mIR and the spleens were harvested after 3 days. Spleen cells were fused with the myeloma Fox cell line (Kohler, G & Milstein C. (1976), European J. Immunology, 6:511-19; Taggart RT et al (1983), Science 219:1228-30). Supernatants were screened for antibody production in a mIR specific ELISA. Positive wells were cloned and tested in Western blotting.

[1] = Hydrophobicity (hydrophobic index) k′rel relative to human insulin by isocratic RP-HPLC; type: physicochemical; details: LiChrosorb RP18, isocratic elution, 40° C., pH 7.3 phosphate/acetonitrile
Protocol: The elution was monitored by following the UV absorption of the eluate at 214 nm. Void time, t0, was found by injecting 0.1 mM sodium nitrate.

Sprague Dawley male rats = assay: Assay (II) potency relative to human insulin, euglycaemic clamp with i.v. infusion; type: in vivo; details: rat clamp, i.v. infusion for 300 min, 15 and 20 pmol/min/kg
Excerpt: Sprague Dawley male rats weighing 238-383 g on the experimental day were used for the clamp experiment. The rats had free access to feed under controlled ambient conditions and were fasted overnight (from 3 pm) prior to the clamp experiment.
The rats were acclimatized in the animal facilities for at least 1 week prior to the surgical procedure. Approximately 1 week prior to the clamp experiment Tygon catheters were inserted under halothane anaesthesia into the jugular vein (for infusion) and the carotid artery (for blood sampling) and exteriorised and fixed on the back of the neck. The rats were given Streptocilin vet. (Boehringer Ingelheim; 0.15 ml/rat, i.m.) post-surgically and placed in an animal care unit (25° C.) during the recovery period. In order to obtain analgesia, Anorphin (0.06 mg/rat, s.c.) was administered during anaesthesia and Rimadyl (1.5 mg/kg, s.c.) was administered after full recovery from the anaesthesia (2-3 h) and again once daily for 2 days.
The clamp technique employed was adapted from (1). At 7 am on the experimental day overnight fasted (from 3 pm the previous day) rats were weighed and connected to the sampling syringes and infusion system (Harvard 22 Basic pumps, Harvard, and Perfectum Hypodermic glass syringe, Aldrich) and then placed into individual clamp cages where they rested for ca. 45 min before start of experiment. The rats were able to move freely on their usual bedding during the entire experiment and had free access to drinking water. […] Plasma glucose levels were measured at 10 min intervals throughout and infusion of 20% aqueous glucose was adjusted accordingly in order to maintain euglyceamia. Samples of re-suspended erythrocytes were pooled from each rat and returned in about ½ ml volumes via the carotid catheter.
Rats were killed at the end of experiment using a pentobarbital overdose.
Test compounds and doses: Insulins to be tested were diluted from a stock solution containing 97 μM of the insulin derivative in 5 mM phosphate pH 7.7. The final concentration in the solution ready for use was 0.45 μM of the insulin derivative, 5 mM of phosphate, 100 mM of sodium chloride, 0.007% of polysorbate 20. The pH was 7.7 and the i.v. infusion rate was 15 and 20 pmol-min^−1−kg^−1.
Both stock solutions were stored at −20 C. and thawed overnight at 4° C. before use. The solutions were gently turned upside down several times 15 min before they were transferred to the infusion syringes.

human insulin receptor, sequence (P06213 28-746 isoform P06213-2 limits assumed): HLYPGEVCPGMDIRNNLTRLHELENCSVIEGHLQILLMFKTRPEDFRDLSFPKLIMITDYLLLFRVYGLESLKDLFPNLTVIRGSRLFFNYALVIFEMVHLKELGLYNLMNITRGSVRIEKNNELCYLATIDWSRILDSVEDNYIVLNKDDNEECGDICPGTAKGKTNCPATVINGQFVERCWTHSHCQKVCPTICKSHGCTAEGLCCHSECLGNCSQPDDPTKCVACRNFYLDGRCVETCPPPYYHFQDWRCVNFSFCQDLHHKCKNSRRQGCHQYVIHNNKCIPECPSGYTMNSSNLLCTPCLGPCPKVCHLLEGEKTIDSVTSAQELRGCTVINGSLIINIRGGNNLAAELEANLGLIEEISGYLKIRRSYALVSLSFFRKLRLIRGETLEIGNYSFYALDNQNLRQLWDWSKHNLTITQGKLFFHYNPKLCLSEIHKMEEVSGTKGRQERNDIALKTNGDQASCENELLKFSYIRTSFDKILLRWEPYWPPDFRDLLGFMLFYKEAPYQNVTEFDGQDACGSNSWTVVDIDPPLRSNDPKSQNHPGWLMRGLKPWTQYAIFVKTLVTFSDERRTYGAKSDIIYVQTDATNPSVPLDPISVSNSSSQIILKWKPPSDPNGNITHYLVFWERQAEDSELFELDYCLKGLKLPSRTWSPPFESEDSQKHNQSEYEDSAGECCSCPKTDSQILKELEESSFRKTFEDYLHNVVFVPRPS
human insulin receptor, sequence (P06213 763-1382 partner limits assumed): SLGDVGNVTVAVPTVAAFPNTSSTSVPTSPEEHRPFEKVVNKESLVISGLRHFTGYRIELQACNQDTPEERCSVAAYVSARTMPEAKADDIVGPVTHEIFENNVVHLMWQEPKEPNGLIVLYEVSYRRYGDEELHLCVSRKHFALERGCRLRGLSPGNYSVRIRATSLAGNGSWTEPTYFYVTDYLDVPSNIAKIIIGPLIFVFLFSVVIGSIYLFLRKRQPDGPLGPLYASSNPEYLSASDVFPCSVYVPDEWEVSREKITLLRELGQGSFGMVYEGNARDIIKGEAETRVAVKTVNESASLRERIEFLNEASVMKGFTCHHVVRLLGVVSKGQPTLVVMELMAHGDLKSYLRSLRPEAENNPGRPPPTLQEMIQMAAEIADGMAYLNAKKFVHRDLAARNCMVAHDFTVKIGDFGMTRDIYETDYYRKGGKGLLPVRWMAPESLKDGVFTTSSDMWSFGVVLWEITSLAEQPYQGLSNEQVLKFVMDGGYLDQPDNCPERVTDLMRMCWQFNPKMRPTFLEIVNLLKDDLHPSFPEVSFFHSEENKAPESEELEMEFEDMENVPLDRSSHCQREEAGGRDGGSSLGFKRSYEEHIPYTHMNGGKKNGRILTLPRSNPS

Row | Substance | Receptor binding (% of human insulin) (human insulin receptor) | k′rel (hydrophobic index relative to human insulin) [1] | Potency relative to human insulin (Sprague Dawley male rats) [%]
1 | N^εB29—(N^α-(HOOC(CH2)14CO)-γ-Glu) des(B30) Human Insulin | 26 % of human insulin | 0.87 | >50
2 | N^εB29—(N^α-(HOOC(CH2)16CO)-γ-Glu—N-(γ-Glu)) des(B30) Human Insulin | 11 % of human insulin | 1.17 | >50
3 | N^εB29—(N—(Gly-OC(CH2)13CO-γ-L-Glu) des(B30) Human Insulin | 22 % of human insulin | 0.58 | 
4 | N^εB29—(N—(Gly-OC(CH2)14CO-γ-L-Glu) des(B30) Human Insulin | 32 % of human insulin | 0.88 | >50
5 | N^εB29—(N—(Gly-OC(CH2)16CO-γ-L-Glu) des(B30) Human Insulin | 9.1 % of human insulin | 1.57 | 
6 | N^εB29—(N—(HOOC(CH2)14CO-ε-L-LysCO—) des(B30) Human Insulin | 5.7 % of human insulin | 0.90 | 
7 | N^εB29—(N—(L-Asp-OC(CH2)16CO)-γ-L-Glu) des(B30) Human Insulin | 13 % of human insulin | 0.70 | 
8 | N^εB29—(N—(L-Glu-OC(CH2)14CO-γ-L-Glu) des(B30) Human Insulin | 13 % of human insulin | 0.33 | 
9 | N^εB29—(N—(L-Glu-OC(CH2)14CO—) des(B30) Human Insulin | 9.4 % of human insulin | 1.17 | 
10 | N^εB29—(N—(L-Sar-OC(CH2)13CO-γ-L-Glu) des(B30) Human Insulin | 20 % of human insulin | 0.63 | 
11 | N^εB29—(N—HOOC(CH2)8CO-γ-Glu) des(B30) human insulin |  | 0.45 | 
12 | N^εB29—(N—HOOC(CH2)13CO-β-L-Asp) des(B30) Human Insulin | 11 % of human insulin | 0.47 | 
13 | N^εB29—(N—HOOC(CH2)13CO-β-L-Glu) des(B30) Human Insulin | 15 % of human insulin | 0.54 | 
14 | N^εB29—(N—HOOC(CH2)14CO-β-D-Asp) des(B30) Human Insulin | 37 % of human insulin |  | 
15 | N^εB29—(N—HOOC(CH2)14CO-β-L-Asp) des(B30) Human Insulin | 16 % of human insulin | 0.69 | >50
16 | N^εB29—(N—HOOC(CH2)15CO-β-L-Asp) des(B30) Human Insulin | 5.4 % of human insulin | 1.09 | 
17 | N^εB29—(N—HOOC(CH2)15CO-γ-L-Glu) des(B30) Human Insulin | 4 % of human insulin | 1.13 | 
18 | N^εB29—(N—HOOC(CH2)16CO-α-Glu)-N-(AspAsp) des(B30) human insulin |  | 1.07 | 
19 | N^εB29—(N—HOOC(CH2)16CO-α-L-Asp) des(B30) Human Insulin | 13 % of human insulin | 1.49 | 
20 | N^εB29—(N—HOOC(CH2)16CO-α-L-Asp)—N-(β-L-Asp) des(B30) Human Insulin | 14 % of human insulin |  | 
21 | N^εB29—(N—HOOC(CH2)16CO-α-L-Glu) des(B30) Human Insulin | 16 % of human insulin | 1.51 | 
22 | N^εB29—(N—HOOC(CH2)16CO-α-L-Glu)—N—(β-L-Asp) des(B30) Human Insulin | 11 % of human insulin | 1.11 | 
23 | N^εB29—(N—HOOC(CH2)16CO-β-L-Asp) des(B30) Human Insulin | 11 % of human insulin | 1.54 | 
24 | N^εB29—(N—HOOC(CH2)16CO-γ-D-Glu) des(B30) Human Insulin | 13 % of human insulin | 1.4 | 
25 | N^εB29—(N—HOOC(CH2)16CO-δ-L-Aad) des(B30) Human Insulin | 7 % of human insulin | 0.84 | 
26 | N^εB29—[N^α-(HOOC(CH2)11)NHCO(CH2)3CO)-γ-L-Glu] des(B30) Human Insulin | 46 % of human insulin | 0.42 | 
27 | N^εB29—[N—(HOOC(CH2)16CO)—N-(carboxymethyl)-β-Ala] des(B30) Human Insulin | 9.4 % of human insulin | 1.13 | 
28 | NεB29—(Nα-(HOOC(CH2)16CO)-γ-Glu) des(B30) Human Insulin | 9.2 % of human insulin | 1.15 | >50

From patent US8828923B2, “Insulin derivatives” (Novo Nordisk A/S, priority 2003, dated 2014)
